Measurements taken from patent publication US20120263728A1.
Substitutions are numbered along the chain they refer to.

B1: CA167_01080 (antibody, from another filing, rabbit IgG1, V domains shown)
VH: QSLEESGGRLVTPETPLTLTCTASGIDLSKWPMTWVRQAPGKGLEWIGIIGRSGSTNYASWAKGRFTISKTSTTVDLKMTSPTTEDTATYFCARGGSYYDLWGQGTLVTVS
VL: AQVLTQTASPVSAAVGNTVTITCQSSQSVWKNNDLSWYQQKLGQPPKLLIYYASTLASGVSSRFKASGSGTQFTLTISDVQCDDAGTYYCVGSYDCSSADCNAFGGGTKVVVK
B2: CA167_00983 (antibody, from another filing, rabbit IgG1, V domains shown)
VH: QSVEESGGRLVTPGTPLTLTCTVSGFSLSNYAMSWVRQAPGKGLEWIGIIGKSGSTAYASWAKGRFTISRTSTTVDLEITSPTTEDTATYFCVRFVLLWGPGTLVTVS
VL: B1 VL with N17G, T22N, W30Y, S36A, L42P, A66G, Q72E, V80A, G86A, V91L
B3: CA167_00932 (antibody, from another filing, rabbit IgG1, V domains shown)
VH: QSLEESGGRLVTPGTPLTLTCTVSGFSLSRYWMSWVRQAPGKGLEWIGNIGGGSGSTLYAPWAKGRSTISKTSTTVDLKITSPTTEDTATYFCGRYVKNGGGYRLDLWGPGTLVTVS
VL: AAVLTQTPSSVSAAVGGTVTIKCQSSQSVYNNNEFSWYQQKPGQPPKLLIYDASKLASGVPSRFSGSGSGTQFTLTISGVQCDDVATYYCLGGYNDDTNRWAFGGGTEVVVE

Key:
[1] = target: recombinant rat Nav1.7 channels expressed in HEK cells (rat) (UniProt O08562); test: cell-based or functional assay
Sequence of UniProt O08562 (O08562 whole entry): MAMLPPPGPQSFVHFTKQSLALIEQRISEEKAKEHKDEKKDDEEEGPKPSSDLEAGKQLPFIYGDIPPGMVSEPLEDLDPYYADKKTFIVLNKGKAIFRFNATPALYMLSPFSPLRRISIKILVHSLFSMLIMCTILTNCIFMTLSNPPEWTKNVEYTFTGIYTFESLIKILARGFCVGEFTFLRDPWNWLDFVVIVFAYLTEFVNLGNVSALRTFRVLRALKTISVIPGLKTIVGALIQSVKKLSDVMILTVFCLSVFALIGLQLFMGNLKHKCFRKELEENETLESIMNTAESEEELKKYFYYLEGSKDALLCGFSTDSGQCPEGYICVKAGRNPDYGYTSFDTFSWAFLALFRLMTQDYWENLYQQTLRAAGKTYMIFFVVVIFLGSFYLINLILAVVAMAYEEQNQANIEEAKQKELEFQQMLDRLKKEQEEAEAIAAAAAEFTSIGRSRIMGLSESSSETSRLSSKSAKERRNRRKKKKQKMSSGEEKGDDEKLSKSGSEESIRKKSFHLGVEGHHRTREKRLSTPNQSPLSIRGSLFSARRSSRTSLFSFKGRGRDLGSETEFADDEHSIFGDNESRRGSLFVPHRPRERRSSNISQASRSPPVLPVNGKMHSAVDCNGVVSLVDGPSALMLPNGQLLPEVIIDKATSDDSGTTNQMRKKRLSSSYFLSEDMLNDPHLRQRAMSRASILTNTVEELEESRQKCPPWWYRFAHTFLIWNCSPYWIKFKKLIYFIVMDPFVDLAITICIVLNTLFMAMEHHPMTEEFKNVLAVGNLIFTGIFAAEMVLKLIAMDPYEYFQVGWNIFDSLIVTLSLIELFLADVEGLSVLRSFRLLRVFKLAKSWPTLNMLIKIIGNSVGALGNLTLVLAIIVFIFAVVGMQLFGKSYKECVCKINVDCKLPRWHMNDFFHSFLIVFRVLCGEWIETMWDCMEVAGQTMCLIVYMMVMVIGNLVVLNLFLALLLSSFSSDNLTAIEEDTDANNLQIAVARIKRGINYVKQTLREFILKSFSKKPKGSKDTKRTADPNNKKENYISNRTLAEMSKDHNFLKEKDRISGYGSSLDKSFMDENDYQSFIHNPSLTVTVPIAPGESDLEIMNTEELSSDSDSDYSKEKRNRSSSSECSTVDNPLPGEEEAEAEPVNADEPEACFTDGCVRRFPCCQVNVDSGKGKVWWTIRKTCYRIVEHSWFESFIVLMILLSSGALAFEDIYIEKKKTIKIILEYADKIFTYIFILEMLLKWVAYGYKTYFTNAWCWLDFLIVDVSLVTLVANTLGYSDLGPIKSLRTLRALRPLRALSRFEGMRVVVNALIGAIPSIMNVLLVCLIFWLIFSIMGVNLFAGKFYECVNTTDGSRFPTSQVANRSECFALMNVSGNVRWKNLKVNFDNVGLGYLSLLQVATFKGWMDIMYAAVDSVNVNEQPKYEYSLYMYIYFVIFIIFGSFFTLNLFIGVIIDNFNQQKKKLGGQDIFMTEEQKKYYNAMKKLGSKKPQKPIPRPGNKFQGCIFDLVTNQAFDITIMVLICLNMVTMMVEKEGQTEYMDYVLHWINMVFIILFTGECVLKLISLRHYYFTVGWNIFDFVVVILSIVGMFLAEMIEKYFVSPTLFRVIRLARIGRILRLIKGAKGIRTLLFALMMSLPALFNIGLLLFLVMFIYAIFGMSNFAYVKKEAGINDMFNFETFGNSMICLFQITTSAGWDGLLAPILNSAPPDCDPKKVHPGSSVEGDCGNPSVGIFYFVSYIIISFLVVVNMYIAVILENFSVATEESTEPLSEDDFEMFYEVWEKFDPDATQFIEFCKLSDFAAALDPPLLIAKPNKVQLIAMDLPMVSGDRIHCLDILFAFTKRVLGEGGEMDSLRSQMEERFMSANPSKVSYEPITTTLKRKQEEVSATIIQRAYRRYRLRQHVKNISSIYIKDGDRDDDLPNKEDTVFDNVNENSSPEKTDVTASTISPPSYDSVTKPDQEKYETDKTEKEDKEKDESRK

[2] = target: human Nav1.7 channel (type IX voltage-gated sodium channel alpha subunit) (human) (UniProt Q15858); test: cell-based or functional assay

| Binder | inhibition of Nav1.7 currents at 25 µg/ml, automated Patch Clamp [1] [%] | Nav1.7 inhibition (%) at 25 µg/ml, automated patch clamp on HEK cells [2] [%] |
| --- | --- | --- |
| B1 | 26 | 46 |
| B2 | – | 41 |
| B3 | – | 27 |
